In the supplement of paper PMC9116672:
± gives the standard deviation of the averaged measurements or the uncertainty stated by the source.

Experiments:
[1] = duplex formation free energy ΔG50 (Van't Hoff fit of HRM Tm); higher = less stable duplex; conditions: temperature for dG: 50 °C, NaCl: 500 mM (unadjusted)
Description: (§1)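 Duplex of the listed DNA strand with its complement, in 1x NNE buffer (500 mM NaCl, pH 7.0) with 1x EvaGreen. ΔH and ΔS come from a Van't Hoff linear fit of 1/Tm against ln(CT/4) over 1-20 uM, using HRM Tm values.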

[2] = duplex melting temperature (HRM, EvaGreen); higher = more stable duplex
Description: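 Listed DNA strand annealed 1:1 with its complementary strand (95 °C 5 min, 0.1 °C/s to 20 °C). Melted in 1x NNE buffer (500 mM NaCl, 10 mM Na2HPO4, 1 mM EDTA, pH 7.0) with 1x EvaGreen on a LightCycler96 (37 to 97 °C, 0.1 °C/s). Tm is the peak of -dF/dT at the stated total duplex concentration; 4 replicates are averaged. PS oligos are non-stereospecific (Rp/Sp mixtures).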

[3] = duplex formation enthalpy ΔH (Van't Hoff fit of HRM Tm); higher = less exothermic duplex formation; conditions: temperature for dG: 50 °C, NaCl: 500 mM (unadjusted)
Description: as §1

[4] = duplex formation entropy ΔS (Van't Hoff fit of HRM Tm); higher = smaller entropy loss on duplex formation; conditions: temperature for dG: 50 °C, NaCl: 500 mM (unadjusted)
Description: as §1

[5] = backbone: PO-PO (both strands phosphodiester DNA)
[6] = backbone: PS-PO (listed strand fully phosphorothioate, complement phosphodiester)
[7] = backbone: PS-PS (both strands fully phosphorothioate)
[8] = duplex concentration 1 µM, backbone: PO-PO (both strands phosphodiester DNA)
[9] = duplex concentration 1 µM, backbone: PS-PO (listed strand fully phosphorothioate, complement phosphodiester)
[10] = duplex concentration 1 µM, backbone: PS-PS (both strands fully phosphorothioate)
[11] = duplex concentration 2.5 µM, backbone: PO-PO (both strands phosphodiester DNA)
[12] = duplex concentration 2.5 µM, backbone: PS-PO (listed strand fully phosphorothioate, complement phosphodiester)
[13] = duplex concentration 2.5 µM, backbone: PS-PS (both strands fully phosphorothioate)
[14] = duplex concentration 5 µM, backbone: PO-PO (both strands phosphodiester DNA)
[15] = duplex concentration 5 µM, backbone: PS-PO (listed strand fully phosphorothioate, complement phosphodiester)
[16] = duplex concentration 5 µM, backbone: PS-PS (both strands fully phosphorothioate)
[17] = duplex concentration 7.5 µM, backbone: PO-PO (both strands phosphodiester DNA)
[18] = duplex concentration 7.5 µM, backbone: PS-PO (listed strand fully phosphorothioate, complement phosphodiester)
[19] = duplex concentration 7.5 µM, backbone: PS-PS (both strands fully phosphorothioate)
[20] = duplex concentration 10 µM, backbone: PO-PO (both strands phosphodiester DNA)
[21] = duplex concentration 10 µM, backbone: PS-PO (listed strand fully phosphorothioate, complement phosphodiester)
[22] = duplex concentration 10 µM, backbone: PS-PS (both strands fully phosphorothioate)
[23] = duplex concentration 15 µM, backbone: PO-PO (both strands phosphodiester DNA)
[24] = duplex concentration 15 µM, backbone: PS-PO (listed strand fully phosphorothioate, complement phosphodiester)
[25] = duplex concentration 15 µM, backbone: PS-PS (both strands fully phosphorothioate)
[26] = duplex concentration 20 µM, backbone: PO-PO (both strands phosphodiester DNA)
[27] = duplex concentration 20 µM, backbone: PS-PO (listed strand fully phosphorothioate, complement phosphodiester)
[28] = duplex concentration 20 µM, backbone: PS-PS (both strands fully phosphorothioate)

Sequence	duplex formation free energy ΔG50 [1, 5]	duplex formation free energy ΔG50 [1, 6]	duplex formation free energy ΔG50 [1, 7]	duplex melting temperature [2, 8]	duplex melting temperature [2, 9]	duplex melting temperature [2, 10]	duplex melting temperature [2, 11]	duplex melting temperature [2, 12]	duplex melting temperature [2, 13]	duplex melting temperature [2, 14]	duplex melting temperature [2, 15]	duplex melting temperature [2, 16]	duplex melting temperature [2, 17]	duplex melting temperature [2, 18]	duplex melting temperature [2, 19]	duplex melting temperature [2, 20]	duplex melting temperature [2, 21]	duplex melting temperature [2, 22]	duplex melting temperature [2, 23]	duplex melting temperature [2, 24]	duplex melting temperature [2, 25]	duplex melting temperature [2, 26]	duplex melting temperature [2, 27]	duplex melting temperature [2, 28]	duplex formation enthalpy ΔH [3, 5]	duplex formation enthalpy ΔH [3, 6]	duplex formation enthalpy ΔH [3, 7]	duplex formation entropy ΔS [4, 5]	duplex formation entropy ΔS [4, 6]	duplex formation entropy ΔS [4, 7]
GTCATTGTGCTTTTGC	-12.27 ± 0.096 kcal/mol	-9.798 ± 0.043 kcal/mol	-8.432 ± 0.028 kcal/mol	60.6 °C	49.8 ± 0.38 °C	45.054 ± 0.018 °C	63.26 ± 0.54 °C	52.96 ± 0.069 °C	46.77 ± 0.14 °C	65.29 ± 0.25 °C	55.24 ± 0.19 °C	48.65 ± 0.052 °C	66.35 ± 0.14 °C	56.46 ± 0.16 °C	49.65 ± 0.053 °C	67.27 ± 0.084 °C	57.2 ± 0.17 °C	50.58 ± 0.096 °C	68.53 ± 0.17 °C	58.37 ± 0.089 °C	51.65 ± 0.14 °C	69.4 ± 0.17 °C	59.15 ± 0.096 °C	52.76 ± 0.13 °C	-78.5 ± 1.9 kcal/mol	-69.8 ± 2.2 kcal/mol	-79.9 ± 3.5 kcal/mol	-205 ± 5.7 cal/mol/K	-186 ± 6.7 cal/mol/K	-221 ± 11 cal/mol/K
TACTTCCAACGTAGG	-10.98 ± 0.06 kcal/mol	-9.629 ± 0.064 kcal/mol	–	–	49.1 °C	45.032 ± 0.023 °C	59.72 ± 0.33 °C	51.72 ± 0.075 °C	45.59 ± 0.28 °C	62 ± 0.17 °C	55.02 ± 0.098 °C	47.2 ± 0.46 °C	63.52 ± 0.17 °C	56.5 ± 0.21 °C	48.26 ± 0.23 °C	64.46 ± 0.077 °C	57.42 ± 0.17 °C	49.7 ± 0.78 °C	66.07 ± 0.095 °C	58.63 ± 0.099 °C	50.85 ± 0.34 °C	67.22 ± 0.12 °C	59.46 ± 0.12 °C	51.9 ± 0.73 °C	-62.5 ± 1.4 kcal/mol	-61.3 ± 3 kcal/mol	–	-159 ± 4.2 cal/mol/K	-160 ± 9.1 cal/mol/K	–
CGTGTGGATAATTAGCT	-12.67 ± 0.099 kcal/mol	-10.86 ± 0.074 kcal/mol	-8.757 ± 0.024 kcal/mol	61.98 ± 0.083 °C	–	45.73 ± 0.44 °C	64.1 ± 0.3 °C	56.74 ± 0.17 °C	48.55 ± 0.15 °C	65.87 ± 0.1 °C	58.92 ± 0.14 °C	50.38 ± 0.16 °C	66.87 ± 0.1 °C	59.81 ± 0.096 °C	51.21 ± 0.21 °C	67.8 ± 0.11 °C	60.627 ± 0.006 °C	51.88 ± 0.24 °C	68.959 ± 0.05 °C	61.686 ± 0.014 °C	52.84 ± 0.21 °C	69.9 ± 0.083 °C	62.48 ± 0.14 °C	53.67 ± 0.26 °C	-83.9 ± 2 kcal/mol	-81 ± 2.4 kcal/mol	-80.3 ± 3 kcal/mol	-220 ± 5.9 cal/mol/K	-217 ± 7.2 cal/mol/K	-221 ± 9.2 cal/mol/K
GATTGTATCATCGACATCACACTACC	-18.3 ± 0.7 kcal/mol	-16.1 ± 0.27 kcal/mol	-11.7 ± 0.069 kcal/mol	73.69 ± 0.2 °C	65.7 ± 0.68 °C	56.3 ± 0.93 °C	74.91 ± 0.39 °C	67.05 ± 0.59 °C	58.43 ± 0.52 °C	76.04 ± 0.6 °C	68.37 ± 0.47 °C	59.81 ± 0.47 °C	76.92 ± 0.26 °C	68.77 ± 0.45 °C	60.92 ± 0.21 °C	77.78 ± 0.12 °C	69.57 ± 0.28 °C	61.49 ± 0.14 °C	78.7 ± 0.1 °C	70.36 ± 0.14 °C	62.51 ± 0.2 °C	79.317 ± 0.061 °C	70.75 ± 0.1 °C	63.05 ± 0.085 °C	-127 ± 9.1 kcal/mol	-137 ± 4.9 kcal/mol	-99.2 ± 2.2 kcal/mol	-336 ± 26 cal/mol/K	-375 ± 14 cal/mol/K	-271 ± 6.5 cal/mol/K
